The values that follow come from patent US20140087995A1 (published 2014).

In experiment [1] the target is T1, human calcitonin receptor (human, UniProt P30988 25-474).
T1 construct: whole, on cells; Assay used cell membranes, not intact cells; also called hCTR; hCT
T1 sequence (looked up): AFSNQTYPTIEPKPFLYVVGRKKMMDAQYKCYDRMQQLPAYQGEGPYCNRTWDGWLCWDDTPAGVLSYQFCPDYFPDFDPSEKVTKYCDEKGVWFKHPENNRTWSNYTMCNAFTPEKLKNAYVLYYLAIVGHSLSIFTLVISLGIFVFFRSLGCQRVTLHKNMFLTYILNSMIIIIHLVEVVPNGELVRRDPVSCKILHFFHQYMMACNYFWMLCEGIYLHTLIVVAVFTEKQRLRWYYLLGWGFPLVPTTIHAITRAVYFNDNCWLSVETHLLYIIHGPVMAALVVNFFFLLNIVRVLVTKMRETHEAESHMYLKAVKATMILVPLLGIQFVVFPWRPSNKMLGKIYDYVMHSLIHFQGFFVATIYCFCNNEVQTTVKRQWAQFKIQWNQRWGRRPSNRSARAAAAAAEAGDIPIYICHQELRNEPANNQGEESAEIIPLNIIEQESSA
Put plainly: ratio IC50 hCTR / IC50 hAmylin-R (reference: human amylin receptor), SPA competition assays. Put shortly: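 IC₅₀ values were derived by one-site competition analysis of SPA counts. Cell membranes (35 ng/μL) with SPA beads were incubated with test compounds for 120 min at 25° C in Hepes buffer, pH 7.4, containing CaCl2, MgCl₂, OA and Tween20.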

Experiment [2] has as its target T2, human amylin receptor (amylin 3(a) receptor: human calcitonin receptor with RAMP-3) (human, UniProt P30988 25-474; O60896 24-148).
T2 construct: whole, on cells; Assay used cell membranes of the Amylin 3(a)/CRE-luc BHK cells, not intact cells; also called hAmylin-R; hAmylinR
T2 sequence (looked up) 1: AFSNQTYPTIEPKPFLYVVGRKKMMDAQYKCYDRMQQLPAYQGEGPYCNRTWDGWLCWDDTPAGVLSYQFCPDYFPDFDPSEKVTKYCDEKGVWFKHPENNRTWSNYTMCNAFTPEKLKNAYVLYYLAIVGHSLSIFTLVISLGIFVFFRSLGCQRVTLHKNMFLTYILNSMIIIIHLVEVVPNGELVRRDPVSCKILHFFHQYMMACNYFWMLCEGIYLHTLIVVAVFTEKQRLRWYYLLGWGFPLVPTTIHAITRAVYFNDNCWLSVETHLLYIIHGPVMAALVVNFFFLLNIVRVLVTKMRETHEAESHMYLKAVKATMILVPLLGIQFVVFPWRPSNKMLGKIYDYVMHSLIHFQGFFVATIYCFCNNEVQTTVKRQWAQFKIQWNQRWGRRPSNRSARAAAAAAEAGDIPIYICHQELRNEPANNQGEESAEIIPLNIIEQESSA
T2 sequence (looked up) 2: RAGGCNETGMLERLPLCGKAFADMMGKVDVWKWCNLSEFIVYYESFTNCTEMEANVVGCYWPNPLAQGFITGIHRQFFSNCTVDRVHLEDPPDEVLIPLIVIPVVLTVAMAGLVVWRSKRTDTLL
Put plainly: SPA competition with 125I-rat amylin on membranes of BHK cells with human calcitonin receptor and RAMP-3 (Assay V). An outline of the steps:
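Cell membranes were prepared by homogenisation in Na-HEPES/EDTA buffer, pH 7.4, and stored at −80° C. They were then coupled to SPA beads at 35 ng/μL final and exposed to compounds in assay buffer containing CaCl2, MgCl₂, OA and Tween20. After 120 min at 25° C, plates were counted and IC₅₀ derived.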

The target in experiment [3] is T1, human calcitonin receptor. As to the kind of experiment: SPA competition with 125I-calcitonin on membranes of BHK cells with human calcitonin receptor (Assay VII). Put shortly:
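BHK hCTR membranes 35 ng/μL + SPA beads 0.05 mg/well; buffer 50 mM Hepes pH 7.4, 1 mM CaCl2, 5 mM MgCl₂, 0.1% OA, 0.02% Tween20. 120 min, 25° C., shaking. Scintillation count; IC50 by one-site binding competition.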

Numbered stars: 1 amine (or outer) side, 2 acyl side, 3 side chain; on linkers, the order of the positions; unused ones are H or OH. Bridge positions count the residues as written; N and C are the ends. Side chains are listed from the residue outwards. Ends that are not written are not given here. * marks the point of attachment. C20 diacid = O=C(O)CCCCCCCCCCCCCCCCCCC(=O)*; γGlu = O=C(O)[C@H](CCC(=O)[*:2])N[*:1]

B1: N^ε1-[(4S)-4-carboxy-4-(19-carboxynonadecanoylamino)butanoyl]-[Arg14,Arg17,Pro21,Pro27]-h-amylin (peptide)
peptide: K([γGlu-C20 diacid])CNTATCATQRLARFLRHSSPNFGAIPSSTNVGSNTY-NH2
modifications: disulfide 2-7; N-terminus assumed
SMILES: CC[C@H](C)[C@H](NC(=O)[C@H](C)NC(=O)CNC(=O)[C@H](Cc1ccccc1)NC(=O)[C@H](CC(N)=O)NC(=O)[C@@H]1CCCN1C(=O)[C@H](CO)NC(=O)[C@H](CO)NC(=O)[C@H](Cc1c[nH]cn1)NC(=O)[C@H](CCCNC(=N)N)NC(=O)[C@H](CC(C)C)NC(=O)[C@H](Cc1ccccc1)NC(=O)[C@H](CCCNC(=N)N)NC(=O)[C@H](C)NC(=O)[C@H](CC(C)C)NC(=O)[C@H](CCCNC(=N)N)NC(=O)[C@H](CCC(N)=O)NC(=O)[C@@H](NC(=O)[C@H](C)NC(=O)[C@@H]1CSSC[C@H](NC(=O)[C@@H](N)CCCCNC(=O)CC[C@H](NC(=O)CCCCCCCCCCCCCCCCCCC(=O)O)C(=O)O)C(=O)N[C@@H](CC(N)=O)C(=O)N[C@@H]([C@@H](C)O)C(=O)N[C@@H](C)C(=O)N[C@@H]([C@@H](C)O)C(=O)N1)[C@@H](C)O)C(=O)N1CCC[C@H]1C(=O)N[C@@H](CO)C(=O)N[C@@H](CO)C(=O)N[C@H](C(=O)N[C@@H](CC(N)=O)C(=O)N[C@H](C(=O)NCC(=O)N[C@@H](CO)C(=O)N[C@@H](CC(N)=O)C(=O)N[C@H](C(=O)N[C@@H](Cc1ccc(O)cc1)C(N)=O)[C@@H](C)O)C(C)C)[C@@H](C)O
notes: also called compound 83
Consider B1, for which, in experiment [1], the “Ratio hCT/hAmylin binding” value stood at 146. Besides, the figures for the IC50 in experiment [2] and in experiment [3] were 0.939 nM and 137 nM, respectively.

B2: N^ε1-[(4S)-4-carboxy-4-(19-carboxynonadecanoylamino)butanoyl]-[Arg17,Pro21,Pro27,Arg34]-h-amylin (peptide)
peptide: K([γGlu-C20 diacid])CNTATCATQRLANFLRHSSPNFGAIPSSTNVGRNTY-NH2
modifications: disulfide 2-7; N-terminus assumed
SMILES: CC[C@H](C)[C@H](NC(=O)[C@H](C)NC(=O)CNC(=O)[C@H](Cc1ccccc1)NC(=O)[C@H](CC(N)=O)NC(=O)[C@@H]1CCCN1C(=O)[C@H](CO)NC(=O)[C@H](CO)NC(=O)[C@H](Cc1c[nH]cn1)NC(=O)[C@H](CCCNC(=N)N)NC(=O)[C@H](CC(C)C)NC(=O)[C@H](Cc1ccccc1)NC(=O)[C@H](CC(N)=O)NC(=O)[C@H](C)NC(=O)[C@H](CC(C)C)NC(=O)[C@H](CCCNC(=N)N)NC(=O)[C@H](CCC(N)=O)NC(=O)[C@@H](NC(=O)[C@H](C)NC(=O)[C@@H]1CSSC[C@H](NC(=O)[C@@H](N)CCCCNC(=O)CC[C@H](NC(=O)CCCCCCCCCCCCCCCCCCC(=O)O)C(=O)O)C(=O)N[C@@H](CC(N)=O)C(=O)N[C@@H]([C@@H](C)O)C(=O)N[C@@H](C)C(=O)N[C@@H]([C@@H](C)O)C(=O)N1)[C@@H](C)O)C(=O)N1CCC[C@H]1C(=O)N[C@@H](CO)C(=O)N[C@@H](CO)C(=O)N[C@H](C(=O)N[C@@H](CC(N)=O)C(=O)N[C@H](C(=O)NCC(=O)N[C@@H](CCCNC(=N)N)C(=O)N[C@@H](CC(N)=O)C(=O)N[C@H](C(=O)N[C@@H](Cc1ccc(O)cc1)C(N)=O)[C@@H](C)O)C(C)C)[C@@H](C)O
notes: also called compound 79
On to B2, for which the “Ratio hCT/hAmylin binding” value in experiment [1] was 46.1. Further, the IC50 in experiment [2] worked out at 0.79 nM; in experiment [3], 36.4 nM.

B3: N^ε1-[(4S)-4-carboxy-4-(19-carboxynonadecanoylamino)butanoyl]-[Asp14,Arg17,Pro21,Pro27,Pro34,Arg35]-h-amylin (peptide)
peptide: K([γGlu-C20 diacid])CNTATCATQRLADFLRHSSPNFGAIPSSTNVGPRTY-NH2
modifications: disulfide 2-7; N-terminus assumed
SMILES: CC[C@H](C)[C@H](NC(=O)[C@H](C)NC(=O)CNC(=O)[C@H](Cc1ccccc1)NC(=O)[C@H](CC(N)=O)NC(=O)[C@@H]1CCCN1C(=O)[C@H](CO)NC(=O)[C@H](CO)NC(=O)[C@H](Cc1c[nH]cn1)NC(=O)[C@H](CCCNC(=N)N)NC(=O)[C@H](CC(C)C)NC(=O)[C@H](Cc1ccccc1)NC(=O)[C@H](CC(=O)O)NC(=O)[C@H](C)NC(=O)[C@H](CC(C)C)NC(=O)[C@H](CCCNC(=N)N)NC(=O)[C@H](CCC(N)=O)NC(=O)[C@@H](NC(=O)[C@H](C)NC(=O)[C@@H]1CSSC[C@H](NC(=O)[C@@H](N)CCCCNC(=O)CC[C@H](NC(=O)CCCCCCCCCCCCCCCCCCC(=O)O)C(=O)O)C(=O)N[C@@H](CC(N)=O)C(=O)N[C@@H]([C@@H](C)O)C(=O)N[C@@H](C)C(=O)N[C@@H]([C@@H](C)O)C(=O)N1)[C@@H](C)O)C(=O)N1CCC[C@H]1C(=O)N[C@@H](CO)C(=O)N[C@@H](CO)C(=O)N[C@H](C(=O)N[C@@H](CC(N)=O)C(=O)N[C@H](C(=O)NCC(=O)N1CCC[C@H]1C(=O)N[C@@H](CCCNC(=N)N)C(=O)N[C@H](C(=O)N[C@@H](Cc1ccc(O)cc1)C(N)=O)[C@@H](C)O)C(C)C)[C@@H](C)O
Regarding B3, the “Ratio hCT/hAmylin binding” value in experiment [1] is 151. Also, the IC50 turned out to be 0.281 nM in experiment [2] and 42.5 nM in experiment [3].

B4: N^ε1-[(4S)-4-carboxy-4-(19-carboxynonadecanoylamino)butanoyl]-[Arg17,Pro21,Pro27,His34]-h-amylin (peptide)
peptide: K([γGlu-C20 diacid])CNTATCATQRLANFLRHSSPNFGAIPSSTNVGHNTY-NH2
modifications: disulfide 2-7; N-terminus assumed
SMILES: CC[C@H](C)[C@H](NC(=O)[C@H](C)NC(=O)CNC(=O)[C@H](Cc1ccccc1)NC(=O)[C@H](CC(N)=O)NC(=O)[C@@H]1CCCN1C(=O)[C@H](CO)NC(=O)[C@H](CO)NC(=O)[C@H](Cc1c[nH]cn1)NC(=O)[C@H](CCCNC(=N)N)NC(=O)[C@H](CC(C)C)NC(=O)[C@H](Cc1ccccc1)NC(=O)[C@H](CC(N)=O)NC(=O)[C@H](C)NC(=O)[C@H](CC(C)C)NC(=O)[C@H](CCCNC(=N)N)NC(=O)[C@H](CCC(N)=O)NC(=O)[C@@H](NC(=O)[C@H](C)NC(=O)[C@@H]1CSSC[C@H](NC(=O)[C@@H](N)CCCCNC(=O)CC[C@H](NC(=O)CCCCCCCCCCCCCCCCCCC(=O)O)C(=O)O)C(=O)N[C@@H](CC(N)=O)C(=O)N[C@@H]([C@@H](C)O)C(=O)N[C@@H](C)C(=O)N[C@@H]([C@@H](C)O)C(=O)N1)[C@@H](C)O)C(=O)N1CCC[C@H]1C(=O)N[C@@H](CO)C(=O)N[C@@H](CO)C(=O)N[C@H](C(=O)N[C@@H](CC(N)=O)C(=O)N[C@H](C(=O)NCC(=O)N[C@@H](Cc1c[nH]cn1)C(=O)N[C@@H](CC(N)=O)C(=O)N[C@H](C(=O)N[C@@H](Cc1ccc(O)cc1)C(N)=O)[C@@H](C)O)C(C)C)[C@@H](C)O
notes: also called compound 77
As to B4, in experiment [1], the “Ratio hCT/hAmylin binding” value is 118. For the same molecule, the IC50 in experiment [2] was found to be 0.428 nM; in experiment [3], 50.7 nM.

B5: N^ε1-[(4S)-4-carboxy-4-(19-carboxynonadecanoylamino)butanoyl]-[Glu14,Arg17,Pro21,Pro27,Arg34,Glu35]-h-amylin (peptide)
peptide: K([γGlu-C20 diacid])CNTATCATQRLAEFLRHSSPNFGAIPSSTNVGRETY-NH2
modifications: disulfide 2-7; N-terminus assumed
SMILES: CC[C@H](C)[C@H](NC(=O)[C@H](C)NC(=O)CNC(=O)[C@H](Cc1ccccc1)NC(=O)[C@H](CC(N)=O)NC(=O)[C@@H]1CCCN1C(=O)[C@H](CO)NC(=O)[C@H](CO)NC(=O)[C@H](Cc1c[nH]cn1)NC(=O)[C@H](CCCNC(=N)N)NC(=O)[C@H](CC(C)C)NC(=O)[C@H](Cc1ccccc1)NC(=O)[C@H](CCC(=O)O)NC(=O)[C@H](C)NC(=O)[C@H](CC(C)C)NC(=O)[C@H](CCCNC(=N)N)NC(=O)[C@H](CCC(N)=O)NC(=O)[C@@H](NC(=O)[C@H](C)NC(=O)[C@@H]1CSSC[C@H](NC(=O)[C@@H](N)CCCCNC(=O)CC[C@H](NC(=O)CCCCCCCCCCCCCCCCCCC(=O)O)C(=O)O)C(=O)N[C@@H](CC(N)=O)C(=O)N[C@@H]([C@@H](C)O)C(=O)N[C@@H](C)C(=O)N[C@@H]([C@@H](C)O)C(=O)N1)[C@@H](C)O)C(=O)N1CCC[C@H]1C(=O)N[C@@H](CO)C(=O)N[C@@H](CO)C(=O)N[C@H](C(=O)N[C@@H](CC(N)=O)C(=O)N[C@H](C(=O)NCC(=O)N[C@@H](CCCNC(=N)N)C(=O)N[C@@H](CCC(=O)O)C(=O)N[C@H](C(=O)N[C@@H](Cc1ccc(O)cc1)C(N)=O)[C@@H](C)O)C(C)C)[C@@H](C)O
On to B5, for which the “Ratio hCT/hAmylin binding” value in experiment [1] came out at 28.5. The IC50 was 0.232 nM in experiment [2] and 6.62 nM in experiment [3].
